Results published in PMC9637154.
Where two headings read alike, the source gives them in different places.

Legend:
[1] = glycan lost
[2] = cell-surface biotinylation, anti-hACE2 western blot; conditions: glycan lost; control: full-length hACE2 wt
[3] = focus reduction neutralization test, Vero E6 cells; conditions: glycan lost; control: shACE2-wt

## angiotensin-converting enzyme 2 (hACE2): N53A
[1]
  other: virus entry into hACE2-expressing cells: decreases
  other: virus entry into hACE2-expressing cells, fold_change: decreases
[2]
  expression_or_secretion: no change

## angiotensin-converting enzyme 2 (hACE2): N53A/N90A/N322A
[1]
  other: virus entry into hACE2-expressing cells: increases
  other: virus entry into hACE2-expressing cells, fold_change: increases
[3]
  other: decoy neutralising activity of shACE2, other: FRNT50: increases
[2]
  expression_or_secretion: no change

## angiotensin-converting enzyme 2 (hACE2): N90A
[1]
  other: virus entry into hACE2-expressing cells: increases
  other: virus entry into hACE2-expressing cells, fold_change: increases
[3]
  other: decoy neutralising activity of shACE2, other: FRNT50: increases
[2]
  expression_or_secretion: no change

## angiotensin-converting enzyme 2 (hACE2): N90A/N322A
[1]
  other: decoy neutralising activity of shACE2, other: FRNT50: increases
  other: virus entry into hACE2-expressing cells: increases
  other: virus entry into hACE2-expressing cells, fold_change: increases
[3]
  other: decoy neutralising activity of shACE2, other: FRNT50: increases
[2]
  expression_or_secretion: no change

## angiotensin-converting enzyme 2 (hACE2): N90S
[1]
  other: virus entry into hACE2-expressing cells: increases

## angiotensin-converting enzyme 2 (hACE2): N90S/N322S
[1]
  other: virus entry into hACE2-expressing cells: increases
  other: virus entry into hACE2-expressing cells, fold_change: increases

## angiotensin-converting enzyme 2 (hACE2): N322A
[1]
  other: virus entry into hACE2-expressing cells: increases
  other: virus entry into hACE2-expressing cells, fold_change: increases
[2]
  expression_or_secretion: no change

## angiotensin-converting enzyme 2 (hACE2): N322S
[1]
  other: virus entry into hACE2-expressing cells: increases
